Results from paper PMC9841417 (Nucleic Acids Research, 2023).
Substitutions are numbered along the chain they refer to. Names and notes keep the numbering of the source.

Biological target: the molecule itself
Experiment: SEC

B1: Full-length Lhr H1199A-R1206A-R1286A (natural protein, Mycobacterium smegmatis, UniProt A0QT91 1-1507, looked up)
chain: MTTNGADPLGRFSALTREWFTTAFAAPTPAQADAWSAISEGNNTLVIAPTGSGKTLAAFLWAIDRLADPAREPSQGTQVLYVSPLKALAVDVERNLRTPLTGITRVAERHGLPAPSITVGVRSGDTPPNQRRAMIANPPDVLITTPESLFLMLTSAARETLTSVRTVIVDEVHAVAATKRGAHLALSLERLDQLLDTPAQRIGLSATVRPPEEVARFLSGQAPTTIVCPPAAKTFDLSVQVPVPDMANLDNNSIWPDVEERIVDLVEAHNSSIVFANSRRLAERLTSRLNEIHAERSGIELPAGPNPEVGGGAPAHLMGSGQANGAPPLLARAHHGSVSKEQRAQVEDDLKSGRLRAVVATSSLELGIDMGAVDLVIQVEAPPSVASGLQRVGRAGHQVGEISQGVLFPKHRTDLIGCAVTVQRMQTGDIETLRVPANPLDVLAQHTVAVAALEPVDADAWFDAVRRSAPFATLPRSAFEATLDLLSGKYPSTEFAELRPRLVYDRDTGTLTARPGAQRLAVTSGGAIPDRGMFTVYLASETEKPSRVGELDEEMVYESRPGDVISLGATSWRITEITHDRVLVIPAPGQPARLPFWRGDSVGRPAELGAAVGAFTGELASLDRKAFDKRCQKMGFAGYATDNLHQLLREQREATGVVPSDTTFVVERFRDELGDWRVILHSPYGLRVHGPLALAVGRRLRERYGIDEKPTASDDGIIVRLPDSGDTPPGADLFVFDADEIEPIVTAEVGGSALFASRFRECAARALLLPRRHPGKRSPLWHQRQRAAQLLDIARKYPDFPIVLEAVRECLQDVYDVPALIELMHKIAQRRLRIVEVETATPSPFAASLLFGYVGAFMYEGDSPLAERRAAALALDTVLLSELLGRVELRELLDPAVVASTSAQLQHLTPERAARDAEGVADLLRLLGPLTEADIAQRCTADNIGAWLDGLHAAKRALPVTYAGQTWWAAVEDIGLLRDGIGVPVPVGVPAAFTESASDPLGDLIGRYARTRGPFTTEQTAARFGLGVRVASDVLSRMAVDGRLIRGEFAADLSGEQWCDAQVLKILRRRSLAALRAQVEPVSTDAYARFLPSWQHVGSTNTTGIDGLATVIEQLAGVPIPASAVESLVFPQRVRDYQPAMLDELLASGEVMWSGAGQIGNGDGWVAFHLADTAPLTLTHGAEIEFTDTHRVILETLGAGGAYFFAQLTDGTVEGTAGQELKQALWELIWAGWVTGDTFAPVRAVLSGPRRSGAPAHRQRQRPPRLSRYSVAHAQTRGTDPTVSGAWSALPAAEPDSTVRAHFQAELLLGRHGVLTKGAVGAEGVPGGFATLYKVLSTFEDAGRCQRGYFVESLGGAQFAVASTVDRLRSYLDNVDPERPEYHAVVLAATDPANPYGAALGWPTDSEAHRPGRKAGALVALVDGRLVWFLERGGRSLLSFGADADAQRAAAGALTDLVSAGRIPSLLVERINGVAVLDPDVDAERAVVQDALLGAGLSRTPRGLRLR
  stoichiometry N: 2

B2: Lhr-CTD (aa 863-1507) R915A-T1100A-D1366A (domain or fragment, Mycobacterium smegmatis, UniProt A0QT91 863-1507, looked up)
chain: SPLAERRAAALALDTVLLSELLGRVELRELLDPAVVASTSAQLQHLTPERAAADAEGVADLLRLLGPLTEADIAQRCTADNIGAWLDGLHAAKRALPVTYAGQTWWAAVEDIGLLRDGIGVPVPVGVPAAFTESASDPLGDLIGRYARTRGPFTTEQTAARFGLGVRVASDVLSRMAVDGRLIRGEFAADLSGEQWCDAQVLKILRRRSLAALRAQVEPVSTDAYARFLPSWQHVGSANTTGIDGLATVIEQLAGVPIPASAVESLVFPQRVRDYQPAMLDELLASGEVMWSGAGQIGNGDGWVAFHLADTAPLTLTHGAEIEFTDTHRVILETLGHGGAYFFRQLTDGTVEGTAGQELKQALWELIWAGWVTGDTFAPVRAVLSGPRRSGAPAHRQRQRPPRLSRYSVAHAQTRGTDPTVSGRWSALPAAEPDSTVRAHFQAELLLGRHGVLTKGAVGAEGVPGGFATLYKVLSTFEDAGRCQRGYFVESLGGAQFAVASTVARLRSYLDNVDPERPEYHAVVLAATDPANPYGAALGWPTDSEAHRPGRKAGALVALVDGRLVWFLERGGRSLLSFGADADAQRAAAGALTDLVSAGRIPSLLVERINGVAVLDPDVDAERAVVQDALLGAGLSRTPRGLRLR
  stoichiometry N: 4

B3: Lhr-CTD (aa 863-1507) H1199A-R1206A-R1286A (domain or fragment, Mycobacterium smegmatis, UniProt A0QT91 863-1507, looked up)
chain: B2 chain with A53R, A238T, H337A, R344A, R424A, A504D
  stoichiometry N: 2
